For three proteins, Km, Vmax and kcat results are on record in article PMC7844235, “Redirecting substrate regioselectivity using engineered ΔN123-GBD-CD2 branching sucrases for the production of pentasaccharide repeating units of S. flexneri 3a, 4a and 4b haptens” (Scientific Reports, 2021).

B1: ΔN123-GBD-CD2 branching sucrase (Leuconostoc mesenteroides) (protein)
chain: QAGHYITKNGNDWQYDTNGELAKGLRQDSNGKLRYFDLTTGIQAKGQFVTIGQETYYFSKDHGDAQLLPMVTEGHYGTITLKQGQDTKTAWVYRDQNNTILKGLQNINGTLQFFDPYTGEQLKGGVAKYDDKLFYFESGKGNLVSTVAGDYQDGHYISQDGQTRYADKQNQLVKGLVTVNGALQYFDNATGNQIKNQQVIVDGKTYYFDDKGNGEYLFTNTLDMSTNAFSTKNVAFNHDSSSFDHTVDGFLTADTWYRPKSILANGTTWRDSTDKDMRPLITVWWPNKNVQVNYLNFMKANGLLTTAAQYTLHSDQYDLNQAAQDVQVAIERRIASEHGTDWLQKLLFESQNNNPSFVKQQFIWNKDSEYHGGGDAWFQGGYLKYGNNPLTPTTNSDYRQPGNAFDFLLANDVDNSNPVVQAENLNWLHYLMNFGTITAGQDDANFDSIRIDAVDFIHNDTIQRTYDYLRDAYQVQQSEAKANQHISLVEAGLDAGTSTIHNDALIESNLREAATLSLTNEPGKNKPLTNMLQDVDGGTLITDHTQNSTENQATPNYSIIHAHDKGVQEKVGAAITDATGADWTNFTDEQLKAGLELFYKDQRATNKKYNSYNIPSIYALMLTNKDTVPRMYYGDMYQDDGQYMANKSIYYDALVSLMTARKSYVSGGQTMSVDNHGLLKSVRFGKDAMTANDLGTSATRTEGLGVIIGNDPKLQLNDSDKVTLDMGAAHKNQKYRAVILTTRDGLATFNSDQAPTAWTNDQGTLTFSNQEINGQDNTQIRGVANPQVSGYLAVWVPVGASDNQDARTAATTTENHDGKVLHSNAALDSNLIYEGFSNFQPKATTHDELTNVVIAKNADVFNNWGITSFEMAPQYRSSGDHTFLDSTIDNGYAFTDRYDLGFNTPTKYGTDGDLRATIQALHHANMQVMADVVDNQVYNLPGKEVVSATRAGVYGNDDATGFGTQLYVTNSVGGGQYQEKYAGQYLEALKAKYPDLFEGKAYDYWYKNYANDGSNPYYTLSHGDRESIPADVAIKQWSAKYMNGTNVLGNGMGYVLKDWHNGQYFKLDGDKSTLPQI
B2: ΔN123-GBD-CD2 branching sucrase (Leuconostoc mesenteroides; F2136L/W2135S) (protein)
chain: B1 chain with W377S, F378L
B3: ΔN123-GBD-CD2 branching sucrase (Leuconostoc mesenteroides; F2163G) (protein)
chain: B1 chain with F405G

Substitutions are numbered along the chain they refer to. Numbers in names are those of the source.

Substrate in this series: OC[C@H]1O[C@@](CO)(O[C@H]2O[C@H](CO)[C@@H](O)[C@H](O)[C@H]2O)[C@@H](O)[C@@H]1O
The series can be described thus: sucrose hydrolysis, HPLC-CAD, Michaelis-Menten fit. The following applies: sucrose as sole substrate, 50 mM sodium acetate pH 5.1, 30 °C. The series is classed as biochemical, Leuconostoc mesenteroides. From the text:
sucrose hydrolysis, HPLC-CAD, Michaelis-Menten fit on ΔN123-GBD-CD2 branching sucrase
The Km is the substrate concentration at which the rate is half of its maximum. For orientation: Vmax means the rate approached at saturating substrate. In general, kcat refers to the maximal rate divided by the concentration of active sites. With B1, the Michaelis-Menten constant (Km) came out at 30.5 ± 7.2 mM, the Vmax stood at 77.5 µmol/min/mg and the kcat came out at 162 ± 12.7 s⁻¹.

On to B2, for which the Michaelis constant (Km) is 8.8 ± 1.0 mM, the maximal velocity (Vmax) turned out to be 17.7 µmol/min/mg and the kcat amounted to 36.9 ± 0.9 s⁻¹.

With B3, the Km stood at 7.0 ± 1.2 mM, the Vmax amounted to 16.8 µmol/min/mg and the kcat is 35.1 ± 0.9 s⁻¹.
